Measured values: patent publication US12129308 (Merck KGaA, dated 2024)
Read-outs that look alike come from different tables or passages of the source.

Tests used:
activated human MMP13 [1] = target: T1, activated human MMP13 (human, UniProt P45452 104-471); experiment: cell-based or functional assay
Aggrecan = target: T2, Aggrecan; experiment: competition ELISA (CAP) on Aggrecan; competitor not stated
T2 construct: also called CAP

activated rat MMP13 [2] = target: T3, activated rat MMP13 (rat, UniProt P23097 99-466); experiment: cell-based or functional assay
activated human MMP13 [3] = target: T1, activated human MMP13; experiment: cell-based or functional assay; remark: listed apart in the source
[4] = target: T4, activated MMP13 (species not stated) (Homo sapiens (Human), UniProt P45452 104-471, Biotinylated in the TIMP-2 competition ELISA (sites not given). Activated form: pro-peptide removed.); experiment: TIMP-2 competition ELISA; Nanobody pre-incubated with 1.26 nM activated MMP13-biotin, binding to captured TIMP-2
T4 construct: campaign 4 ELISA; Probably human

activated dog MMP13 = activated dog MMP13 (dog, UniProt P45452 104-471 (human entry)); experiment: cell-based or functional assay
bovine MMP13 = bovine MMP13 (bovine, UniProt O77656 104-471); experiment: cell-based or functional assay
cynomolgus MMP13 = cynomolgus MMP13 (cynomolgus, UniProt A0A2K5U988 104-471); experiment: cell-based or functional assay
activated rat MMP13 [5] = target: T3, activated rat MMP13; experiment: cell-based or functional assay; remark: listed apart in the source
activated human MMP13 [6] = target: T1, activated human MMP13; experiment: cell-based or functional assay; remark: listed apart in the source

| Binder | potency, human fluorogenic peptide assay (activated human MMP13 [1]) [nM] | IC50 (Aggrecan) [nM] | IC50, (adapted) rat fluorogenic peptide assay (activated rat MMP13 [2]) [nM] | IC50, human fluorogenic collagen assay (activated human MMP13 [3]) [nM] | also measured |
| --- | --- | --- | --- | --- | --- |
| C010100702 (bispecific antibody, also called 517A01SO-40E09SOvar-114F08SO-114F08SO) EVQLVESGGGLVQPGGSLRLSCAASGRTFSSYAMGWFRQAPGKEREFVAAISWSGGSTYYADSVKGRFTISRDNSKNTVYLQMNSLRPEDTAVYYCTAALAVYGPSRYRYGPVGEYQYWGQGTLVTVSSGGGGSGGGGSGGGGSGGGGSGGGGSGGGGSGGGGSEVQLVESGGGSVQPGGSLRLSCAASGSTFSRYSMNWYRQAPGKQREFVAGISVGRITNYAVSVRGRFTISRDNSEGTGYLQMNSLRPEDTAVYYCNAGGLQGYWGLGTLVTVSSGGGGSGGGGSGGGGSGGGGSGGGGSGGGGSGGGGSEVQLVESGGGLVQPGGSLRLSCAASGSTFIINVVRWYRRAPGKQRELVATISSGGNANYVDSVRGRFTISRDNSKNTVYLQMNSLRPEDTAVYYCNVPTTHYGGVYYGPYWGQGTLVTVSSGGGGSGGGGSGGGGSGGGGSGGGGSGGGGSGGGGSEVQLVESGGGLVQPGGSLRLSCAASGSTFIINVVRWYRRAPGKQRELVATISSGGNANYVDSVRGRFTISRDNSKNTVYLQMNSLRPEDTAVYYCNVPTTHYGGVYYGPYWGQGTLVTVSS | 0.0771 | 0.12 |  |  |  |
| 40E09-517A01 clone 71 (bispecific antibody) EVQLVESGGGSVQAGGSLRLSCAASGSTFSRYSMNWYRQAPGKQREFVAGISVGRITNYAVSVRGRFTISRDNAEGTGYLQMNSLKPEDTAVYYCNAGGLQGYWGLGTLVTVSSGGGGSGGGGSGGGGSGGGGSGGGGSGGGGSGGGGSEVQLVESGGGLVQPGGSLRLSCAASGRTFSSYAMGWFRQAPGKEREFVAAISWSGGSTYYADSVKGRFTISRDNSKNTVYLQMNSLRPEDTAVYYCTAALAVYGPNRYRYGPVGEYNYWGQGTLVTVSS |  |  | 0.11 | 6.5 |  |
| C0101PMP062C02 (VHH, Profile 2 Nanobody; also called C0101062C02) VHH: EVQLVESGGALVRPGGSLRLSCAASGFAFSAAYMSWVRQAPGRGLEWVSSISDDGSKTYYADSVKGRFTISRDNAKNTVYLQMNNLKPDDTAVYYCNTGYGATTTRPGRYWGQGTQVTVSS |  |  | 2.88 | 8.32 | IC50 [4]: 0.9 nM; IC50, dog fluorogenic peptide assay (activated dog MMP13): 1 nM; IC50, bovine fluorogenic peptide assay (bovine MMP13): 3.1 nM; IC50, cyno fluorogenic peptide assay (cynomolgus MMP13): 1.4 nM; IC50, rat fluorogenic peptide assay (activated rat MMP13 [5]): 1.1 nM; IC50, human collagenolytic assay (activated human MMP13 [6]): 1.4 nM; IC50, human fluorogenic collagen assay (activated human MMP13 [6]): 8.3 nM; IC50, human fluorogenic peptide assay (activated human MMP13 [6]): 1.4 nM |
| C010100690 (bispecific antibody, MMP13-Aggrecan bispecific Nanobody construct; also called 80A01-604F02SO) EVQLVESGGGLVQPGGSLRLSCAASGFTLAYYSIGWFRQAPGKEREGVSCISSGIDGSTYYADSVKGRFTISRDNAKNTMYLQMNNLKPEDTGVYYCAADPSHYYSEYDCGYYGMDYWGKGTLVTVSSGGGGSGGGGSGGGGSGGGGSGGGGSGGGGSGGGGSEVQLVESGGGLVQPGGSLRLSCAASGRTFSSYTMGWFRQAPGKEREFVAAISWSGGRTYYADSVKGRFTISRDNSKNTVYLQMNSLRPEDTAVYYCAAYRRRRASSNRGLWDYWGQGTLVTVSS | 2.42 | 24 |  |  |  |
| C010100683 (bispecific antibody, MMP13-Aggrecan bispecific Nanobody construct; also called 62C02SO-114F08SO-114F08SO) EVQLVESGGGLVQPGGSLRLSCAASGFAFSAAYMSWVRQAPGKGLEWVSSISDDGSKTYYADSVKGRFTISRDNSKNTVYLQMNSLRPEDTAVYYCNTGYGATTTRPGRYWGQGTLVTVSSGGGGSGGGGSGGGGSGGGGSGGGGSGGGGSGGGGSEVQLVESGGGLVQPGGSLRLSCAASGSTFIINVVRWYRRAPGKQRELVATISSGGNANYVDSVRGRFTISRDNSKNTVYLQMNSLRPEDTAVYYCNVPTTHYGGVYYGPYWGQGTLVTVSSGGGGSGGGGSGGGGSGGGGSGGGGSGGGGSGGGGSEVQLVESGGGLVQPGGSLRLSCAASGSTFIINVVRWYRRAPGKQRELVATISSGGNANYVDSVRGRFTISRDNSKNTVYLQMNSLRPEDTAVYYCNVPTTHYGGVYYGPYWGQGTLVTVSS | 0.953 | 0.23 |  |  |  |
| C010100681 (bispecific antibody, MMP13-Aggrecan bispecific Nanobody construct; also called 80A01-114F08SO-114F08SO) EVQLVESGGGLVQPGGSLRLSCAASGFTLAYYSIGWFRQAPGKEREGVSCISSGIDGSTYYADSVKGRFTISRDNAKNTMYLQMNNLKPEDTGVYYCAADPSHYYSEYDCGYYGMDYWGKGTLVTVSSGGGGSGGGGSGGGGSGGGGSGGGGSGGGGSGGGGSEVQLVESGGGLVQPGGSLRLSCAASGSTFIINVVRWYRRAPGKQRELVATISSGGNANYVDSVRGRFTISRDNSKNTVYLQMNSLRPEDTAVYYCNVPTTHYGGVYYGPYWGQGTLVTVSSGGGGSGGGGSGGGGSGGGGSGGGGSGGGGSGGGGSEVQLVESGGGLVQPGGSLRLSCAASGSTFIINVVRWYRRAPGKQRELVATISSGGNANYVDSVRGRFTISRDNSKNTVYLQMNSLRPEDTAVYYCNVPTTHYGGVYYGPYWGQGTLVTVSS | 1.08 | 0.99 |  |  |  |
| 40E09-516G08 clone 70 (bispecific antibody) EVQLVESGGGSVQAGGSLRLSCAASGSTFSRYSMNWYRQAPGKQREFVAGISVGRITNYAVSVRGRFTISRDNAEGTGYLQMNSLKPEDTAVYYCNAGGLQGYWGLGTLVTVSSGGGGSGGGGSGGGGSGGGGSGGGGSGGGGSGGGGSEVQLVESGGGLVQPGGSLRLSCAGSGSIFRINVMAWYRQAPGKQRELVAAITSGGTTNYADSVKGRFTISRDNSKNTVYLQMNSLRPEDTAVYYCYADIGWPYVLDYDFWGQGTLVTVSS |  |  | 0.12 | 2.9 |  |
| C010100729 (bispecific antibody, also called 517A01SO-40E09SO-604F02SO-A) DVQLVESGGGLVQPGGSLRLSCAASGRTFSSYAMGWFRQAPGKEREFVAAISWSGGSTYYADSVKGRFTISRDNSKNTVYLQMNSLRPEDTAVYYCTAALAVYGPSRYRYGPVGEYQYWGQGTLVTVSSGGGGSGGGGSGGGGSGGGGSGGGGSGGGGSGGGGSEVQLVESGGGLVQPGGSLRLSCAASGSTFSRYSMNWYRQAPGKQREFVAGISVGRITNYAVSVKGRFTISRDNSKNTGYLQMNSLRPEDTAVYYCNAGGLQGYWGQGTLVTVSSGGGGSGGGGSGGGGSGGGGSGGGGSGGGGSGGGGSEVQLVESGGGLVQPGGSLRLSCAASGRTFSSYTMGWFRQAPGKEREFVAAISWSGGRTYYADSVKGRFTISRDNSKNTVYLQMNSLRPEDTAVYYCAAYRRRRASSNRGLWDYWGQGTLVTVSSA | 0.541 | 21 |  |  |  |
| C0101PMP516G08 (VHH, Profile 2 Nanobody; also called C0101516G08) VHH: DVQLVESGGGLVQPGGSLRLSCAGSGSIFRINVMAWYRQAPGKQRELVAAITSGGTTNYADSVKGRFTISRDNSKNTVYLQMNSLRPEDTAVYYCYADIGWPYVLDYDFWGQGTLVTVSS |  |  | 4.98 | 3.78 | IC50 [4]: 0.5 nM; IC50, dog fluorogenic peptide assay (activated dog MMP13): 4.4 nM; IC50, bovine fluorogenic peptide assay (bovine MMP13): 1.5 nM; IC50, cyno fluorogenic peptide assay (cynomolgus MMP13): 0.4 nM; IC50, rat fluorogenic peptide assay (activated rat MMP13 [5]): 5.2 nM; IC50, human collagenolytic assay (activated human MMP13 [6]): 0.9 nM; IC50, human fluorogenic collagen assay (activated human MMP13 [6]): 3.8 nM; IC50, human fluorogenic peptide assay (activated human MMP13 [6]): 0.8 nM |
